Reference: paper doi:10.1101/301622 (bioRxiv, 2018)

Biological target: ΔCTT, a variant of FtsZ that lacks the CTT (B. subtilis)

ΔCTT, a variant of FtsZ that lacks the CTT (domain or fragment)
GTPase activity (coupled assay, 5 μM protein, 1 mM GTP), relative to WT FtsZ: 3 fold
